# Reference: patent publication US20160367623A1, “AGONISTS OF GUANYLATE CYCLASE USEFUL FOR THE TREATMENT OF GASTROINTESTINAL DISORDERS, INFLAMMATION, CANCER AND OTHER DISORDERS” (priority 2015, published 2016)
# Bridge positions count the residues as written; N and C are the ends. Ends that are not written are not given here.
# System: patients with chronic idiopathic constipation (CIC)
# Assay: Second phase 3 CIC trial: treatment emergent adverse events, safety
substance,measurement,setting,value
"Asn^1-Asp^2-Glu^3-Cys^4-Glu^5-Leu^6-Cys^7-Val^8-Asn^9-Val^10-Ala^11-Cys^12-Thr^13-Gly^14-Cys^15-Leu^16 (NDECELCVNVACTGCL; disulfide 4-12, 7-15) [Plecanatide]","Infections and infestations, Severe: patients N",3 mg,0
same,Infections and infestations: events E,3 mg,38
same,Infections and infestations: patients %,3 mg,(7.3) %
same,Infections and infestations: patients N,3 mg,34
same,"Influenza, Mild: events E",3 mg,2
same,"Influenza, Mild: patients %",3 mg,(0.4) %
same,"Influenza, Mild: patients N",3 mg,2
same,"Influenza, Moderate: events E",3 mg,0
same,"Influenza, Moderate: patients N",3 mg,0
same,"Influenza, Severe: events E",3 mg,0
same,"Influenza, Severe: patients N",3 mg,0
same,Influenza: events E,3 mg,2
same,Influenza: patients %,3 mg,(0.4) %
same,Influenza: patients N,3 mg,2
same,"Injury, poisoning and procedural complications, Mild: events E",3 mg,6
same,"Injury, poisoning and procedural complications, Mild: patients %",3 mg,(0.9) %
same,"Injury, poisoning and procedural complications, Mild: patients N",3 mg,4
same,"Ligament sprain, Mild: events E",3 mg,1
same,"Ligament sprain, Mild: patients %",3 mg,(0.2) %
same,"Ligament sprain, Mild: patients N",3 mg,1
same,"Ligament sprain, Moderate: events E",3 mg,1
same,"Ligament sprain, Moderate: patients %",3 mg,(0.2) %
same,"Ligament sprain, Moderate: patients N",3 mg,1
same,"Ligament sprain, Severe: events E",3 mg,0
same,"Ligament sprain, Severe: patients N",3 mg,0
same,Ligament sprain: events E,3 mg,2
same,Ligament sprain: patients %,3 mg,(0.4) %
same,Ligament sprain: patients N,3 mg,2
same,"Skeletal injury, Mild: events E",3 mg,0
same,"Skeletal injury, Mild: patients N",3 mg,0
same,"Skeletal injury, Moderate: events E",3 mg,0
same,"Skeletal injury, Moderate: patients N",3 mg,0
same,"Skeletal injury, Severe: events E",3 mg,0
same,"Skeletal injury, Severe: patients N",3 mg,0
same,Skeletal injury: events E,3 mg,0
same,Skeletal injury: patients N,3 mg,0
same,Ileus: events (E),3 mg (N = 467),0
same,Infections and infestations (SOC): events E,3 mg (N = 467),38
same,Infections and infestations (SOC): patients %,3 mg (N = 467),(7.3) %
same,Infections and infestations (SOC): patients N,3 mg (N = 467),34
same,"Influenza like illness, Mild: events (E)",3 mg (N = 467),0
same,"Influenza like illness, Moderate: events (E)",3 mg (N = 467),0
same,"Influenza like illness, Severe: events (E)",3 mg (N = 467),0
same,Influenza like illness: events (E),3 mg (N = 467),0
same,Influenza like illness: events E,3 mg (N = 467),0
same,Influenza like illness: patients N,3 mg (N = 467),0
same,Influenza: events E,3 mg (N = 467),2
same,Influenza: patients %,3 mg (N = 467),(0.4) %
same,Influenza: patients N,3 mg (N = 467),2
same,"Injury, poisoning and procedural complications (SOC): events E",3 mg (N = 467),10
same,"Nausea, Mild: events (E)",3 mg (N = 467),4
same,"Nausea, Mild: patients (%)",3 mg (N = 467),(0.9) %
same,"Nausea, Moderate: events (E)",3 mg (N = 467),0
same,"SAE Musculoskeletal and connective tissue disorders, E events",3 mg (N = 467),0
same,"SAE Musculoskeletal and connective tissue disorders, N patients",3 mg (N = 467),0
same,"SAE Musculoskeletal and connective tissue disorders, No Reasonable Possibility, E events",3 mg (N = 467),0
same,"SAE Musculoskeletal and connective tissue disorders, No Reasonable Possibility, N patients",3 mg (N = 467),0
same,"SAE Musculoskeletal and connective tissue disorders, Reasonable Possibility, E events",3 mg (N = 467),0
same,"SAE Musculoskeletal and connective tissue disorders, Reasonable Possibility, N patients",3 mg (N = 467),0
same,"Infections and infestations, Severe: patients N",6 mg,1
same,Infections and infestations: events E,6 mg,51
same,Infections and infestations: patients %,6 mg,(9.2) %
same,Infections and infestations: patients N,6 mg,43
same,"Influenza, Mild: events E",6 mg,4
same,"Influenza, Mild: patients %",6 mg,(0.9) %
same,"Influenza, Mild: patients N",6 mg,4
same,"Influenza, Moderate: events E",6 mg,3
same,"Influenza, Moderate: patients %",6 mg,(0.6) %
same,"Influenza, Moderate: patients N",6 mg,3
same,"Influenza, Severe: events E",6 mg,0
same,"Influenza, Severe: patients N",6 mg,0
same,Influenza: events E,6 mg,7
same,Influenza: patients %,6 mg,(1.5) %
same,Influenza: patients N,6 mg,7
same,"Injury, poisoning and procedural complications, Mild: events E",6 mg,4
same,"Injury, poisoning and procedural complications, Mild: patients %",6 mg,(0.9) %
same,"Injury, poisoning and procedural complications, Mild: patients N",6 mg,4
same,"Ligament sprain, Mild: events E",6 mg,0
same,"Ligament sprain, Mild: patients N",6 mg,0
same,"Ligament sprain, Moderate: events E",6 mg,0
same,"Ligament sprain, Moderate: patients N",6 mg,0
same,"Ligament sprain, Severe: events E",6 mg,0
same,"Ligament sprain, Severe: patients N",6 mg,0
same,Ligament sprain: events E,6 mg,0
same,Ligament sprain: patients N,6 mg,0
same,"Skeletal injury, Mild: events E",6 mg,0
same,"Skeletal injury, Mild: patients N",6 mg,0
same,"Skeletal injury, Moderate: events E",6 mg,0
same,"Skeletal injury, Moderate: patients N",6 mg,0
same,"Skeletal injury, Severe: events E",6 mg,1
same,"Skeletal injury, Severe: patients %",6 mg,(0.2) %
same,"Skeletal injury, Severe: patients N",6 mg,1
same,Skeletal injury: events E,6 mg,1
same,Skeletal injury: patients %,6 mg,(0.2) %
same,Skeletal injury: patients N,6 mg,1
same,Ileus: events (E),6 mg (N = 469),0
same,Infections and infestations (SOC): events E,6 mg (N = 469),51
same,Infections and infestations (SOC): patients %,6 mg (N = 469),(9.2) %
same,Infections and infestations (SOC): patients N,6 mg (N = 469),43
same,"Influenza like illness, Mild: events (E)",6 mg (N = 469),1
same,"Influenza like illness, Mild: patients (%)",6 mg (N = 469),(0.2) %
same,"Influenza like illness, Moderate: events (E)",6 mg (N = 469),0
same,"Influenza like illness, Severe: events (E)",6 mg (N = 469),0
same,Influenza like illness: events (E),6 mg (N = 469),1
same,Influenza like illness: events E,6 mg (N = 469),1
same,Influenza like illness: patients %,6 mg (N = 469),(0.2) %
same,Influenza like illness: patients (%),6 mg (N = 469),(0.2) %
same,Influenza like illness: patients N,6 mg (N = 469),1
same,Influenza: events E,6 mg (N = 469),7
same,Influenza: patients %,6 mg (N = 469),(1.5) %
same,Influenza: patients N,6 mg (N = 469),7
same,"Injury, poisoning and procedural complications (SOC): events E",6 mg (N = 469),9
same,"Nausea, Mild: events (E)",6 mg (N = 469),3
same,"Nausea, Mild: patients (%)",6 mg (N = 469),(0.6) %
same,"Nausea, Moderate: events (E)",6 mg (N = 469),2
same,"Nausea, Moderate: patients (%)",6 mg (N = 469),(0.4) %
same,"SAE Musculoskeletal and connective tissue disorders, E events",6 mg (N = 469),0
same,"SAE Musculoskeletal and connective tissue disorders, N patients",6 mg (N = 469),0
same,"SAE Musculoskeletal and connective tissue disorders, No Reasonable Possibility, E events",6 mg (N = 469),0
same,"SAE Musculoskeletal and connective tissue disorders, No Reasonable Possibility, N patients",6 mg (N = 469),0
same,"SAE Musculoskeletal and connective tissue disorders, Reasonable Possibility, E events",6 mg (N = 469),0
same,"SAE Musculoskeletal and connective tissue disorders, Reasonable Possibility, N patients",6 mg (N = 469),0
same,"Influenza, Mild: events E",Active Combined,6
same,"Influenza, Mild: patients %",Active Combined,(0.6) %
same,"Influenza, Mild: patients N",Active Combined,6
same,"Influenza, Moderate: events E",Active Combined,3
same,"Influenza, Moderate: patients %",Active Combined,(0.3) %
same,"Influenza, Moderate: patients N",Active Combined,3
same,"Influenza, Severe: events E",Active Combined,0
same,"Influenza, Severe: patients N",Active Combined,0
same,Influenza: events E,Active Combined,9
same,Influenza: patients %,Active Combined,(1.0) %
same,Influenza: patients N,Active Combined,9
same,"Skeletal injury, Mild: events E",Active Combined,0
same,"Skeletal injury, Mild: patients N",Active Combined,0
same,"Skeletal injury, Moderate: events E",Active Combined,0
same,"Skeletal injury, Moderate: patients N",Active Combined,0
same,"Skeletal injury, Severe: events E",Active Combined,1
same,"Skeletal injury, Severe: patients %",Active Combined,(0.1) %
same,"Skeletal injury, Severe: patients N",Active Combined,1
same,Skeletal injury: events E,Active Combined,1
same,Skeletal injury: patients %,Active Combined,(0.1) %
same,Skeletal injury: patients N,Active Combined,1
same,Infections and infestations (SOC): events E,Active Combined (N = 936),89
same,Infections and infestations (SOC): patients %,Active Combined (N = 936),(8.2) %
same,Infections and infestations (SOC): patients N,Active Combined (N = 936),77
same,"Influenza like illness, Mild: events (E)",Active Combined (N = 936),1
same,"Influenza like illness, Mild: patients (%)",Active Combined (N = 936),(0.1) %
same,"Influenza like illness, Moderate: events (E)",Active Combined (N = 936),0
same,"Influenza like illness, Severe: events (E)",Active Combined (N = 936),0
same,Influenza like illness: events (E),Active Combined (N = 936),1
